Data as given in patent US20210363269A1 (ALX ONCOLOGY, published 2021).

T1: NOD mouse SIRP-α D1 domain (mouse (NOD strain))
T1 chain: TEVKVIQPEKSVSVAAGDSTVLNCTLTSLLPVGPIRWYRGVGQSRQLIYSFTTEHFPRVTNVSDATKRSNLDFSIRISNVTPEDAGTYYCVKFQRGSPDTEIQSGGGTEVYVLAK

T2: mouse 129 SIRP-α D1 domain (mouse (129 strain), UniProt P97797 32-150)
T2 construct: also called m129
T2 chain: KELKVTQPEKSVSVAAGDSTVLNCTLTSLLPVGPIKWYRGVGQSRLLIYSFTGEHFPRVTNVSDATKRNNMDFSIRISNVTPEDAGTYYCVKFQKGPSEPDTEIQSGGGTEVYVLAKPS

T3: C57BL/6 mouse SIRP-α D1 domain (mouse (C57BL/6 strain), UniProt P97797 32-148)
T3 sequence: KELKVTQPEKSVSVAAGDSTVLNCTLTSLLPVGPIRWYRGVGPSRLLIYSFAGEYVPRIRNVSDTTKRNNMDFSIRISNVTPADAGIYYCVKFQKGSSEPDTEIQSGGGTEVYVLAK

T4: BALB/c mouse SIRP-α D1 domain (mouse (BALB/c strain))
T4 chain: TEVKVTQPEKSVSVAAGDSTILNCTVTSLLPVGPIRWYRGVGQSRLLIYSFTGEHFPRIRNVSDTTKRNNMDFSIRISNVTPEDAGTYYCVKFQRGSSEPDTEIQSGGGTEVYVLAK

T5: NOD mouse SIRP-α (mouse (NOD strain))
T5 chain: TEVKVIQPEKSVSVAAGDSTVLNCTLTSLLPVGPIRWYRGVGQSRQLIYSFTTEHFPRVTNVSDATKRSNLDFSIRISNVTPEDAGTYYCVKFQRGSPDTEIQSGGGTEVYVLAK

T6: BL6 mouse SIRP-α (mouse (C57BL/6 strain), UniProt P97797 32-148)
T6 construct: also called C57BL/6
T6 sequence: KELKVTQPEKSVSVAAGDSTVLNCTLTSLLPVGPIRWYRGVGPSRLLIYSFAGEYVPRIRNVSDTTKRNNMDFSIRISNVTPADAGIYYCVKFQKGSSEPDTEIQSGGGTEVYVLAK

T7: BALBc mouse SIRP-α (mouse (BALB/c strain))
T7 chain: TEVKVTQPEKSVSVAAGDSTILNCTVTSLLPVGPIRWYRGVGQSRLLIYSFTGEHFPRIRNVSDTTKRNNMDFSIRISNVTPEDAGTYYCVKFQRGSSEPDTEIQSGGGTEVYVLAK


Key:
[1] = target: T1, NOD mouse SIRP-α D1 domain; experiment: SPR, ProteOn, antibody on chip
Procedure: (§1) All experiments were performed at 25° C. using a SPR-based ProteOn XPR36 biosensor (BioRad, Inc, Hercules, Calif.) equipped with GLC or NLC sensor chips. […] Purification was carried out by standard Protein A affinity column chromatography and eluted antibodies were stored in PBS buffer.
(§2) For the method using GLC chip, the analytes were injected and flowed over anti-SIRPα antibodies immobilized (˜1000 RUs) on GLC chips using Proteon™ Amine Coupling Kit. For the immobilization step, GLC chip was activated with EDAC/Sulpho-NHS 1:1 (Biorad) diluted 1/100 for 300 s at 25 μL/min. Anti-SIRPα antibodies were diluted to 80 nM concentration in 10 mM sodium acetate buffer pH 4.5 and immobilized to the chip at 30 μL/min for 50 s. Chip was inactivated with ethanolamine for 300 s at 25 μL/min. The analytes (e.g., SIRP-α from different species, SIRP-β, SIRP-γ) were injected in a “one-shot” kinetic mode at nominal concentrations of 100, 33, 11, 3.7, 1.2 and 0 nM. Association times were monitored for 90 s at 100 μL/min, and dissociation times were monitored for 1200 s. The surfaces were regenerated with a 2:1 v/v blend of Pierce IgG elution buffer/4M NaCl.
(§3) Next, the binding kinetics of various antibody clones to selected mouse SIRP-α proteins were determined as described above. Mouse proteins that were tested include BALBc (SEQ ID NO:10), BL6 (SEQ ID NO:9), NOD (SEQ ID NO:8), and m129 (SEQ ID NO:7) SIRP-α proteins. Antibody clones labeled as “c” were tested as full-length mouse IgG2a antibodies; antibody clones labeled as “a” were tested as full-length human IgG1 antibodies with L234A, L235A, G237A, and N297A mutations.

[2] = target: T2, mouse 129 SIRP-α D1 domain; experiment: SPR, ProteOn, antibody on chip
Procedure: as §1, §2, §3

[3] = target: T3, C57BL/6 mouse SIRP-α D1 domain; experiment: SPR, ProteOn, antibody on chip
Procedure: as §1
(§4) The running buffer was PBS pH 7.4 with 0.01% Tween-20 (PBST+). All analytes were used at their nominal concentrations as determined by A280 Absorbance and using their molar calculated extinction coefficient.
as §2

[4] = target: T4, BALB/c mouse SIRP-α D1 domain; experiment: SPR, ProteOn, antibody on chip
Procedure: as §1, §4, §2

[5] = target: T5, NOD mouse SIRP-α; experiment: SPR, antibody on GLC chip
Procedure, shortened: (§5)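 Antibodies purified with Protein A were amine-coupled (~1000 RU) to a ProteOn XPR36 GLC chip, and SIRP analytes were injected one-shot at 100, 33, 11, 3.7, 1.2 and 0 nM in PBS pH 7.4 with 0.01% Tween-20 at 25° C. Each run used 90 s association at 100 μL/min followed by 1200 s dissociation. KD was derived as kd/ka from a global Langmuir fit to double-referenced sensorgrams.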

[6] = target: T6, BL6 mouse SIRP-α; experiment: SPR, antibody on GLC chip
Procedure, shortened: as §5

[7] = target: T8, human SIRP-α v2 (human); experiment: SPR, antibody on GLC chip
T8 construct: also called Human v2; Human V2
Procedure, shortened: as §5

[8] = target: T7, BALBc mouse SIRP-α; experiment: SPR, antibody on GLC chip
Procedure, shortened: as §5

[9] = target: T9, human SIRPγ isoform 1 (human, UniProt Q9P1W8 29-147); experiment: SPR, antibody on GLC chip
T9 construct: also called Gamma; Human SIRPg
Procedure, shortened: as §5

[10] = target: T10, human SIRP-α v1 (human, UniProt P78324 31-149); experiment: SPR, antibody on GLC chip
T10 construct: also called Human v1; Human V1
Procedure, shortened: as §5

T10 sequence (P78324 31-149 limits assumed): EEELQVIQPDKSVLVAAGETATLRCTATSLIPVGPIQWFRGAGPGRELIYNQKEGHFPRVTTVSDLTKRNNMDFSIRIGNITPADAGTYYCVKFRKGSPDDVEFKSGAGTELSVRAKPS
T8 sequence (chain, as listed by the source limits assumed): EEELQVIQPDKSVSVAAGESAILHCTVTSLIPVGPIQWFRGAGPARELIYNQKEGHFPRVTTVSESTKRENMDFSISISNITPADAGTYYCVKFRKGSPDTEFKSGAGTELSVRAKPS
T9 sequence (Q9P1W8 29-147 limits assumed): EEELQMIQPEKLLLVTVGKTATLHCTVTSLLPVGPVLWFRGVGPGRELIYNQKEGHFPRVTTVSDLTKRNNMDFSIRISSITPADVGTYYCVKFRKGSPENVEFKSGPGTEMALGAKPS

Binder | Kd [1] [nM] | koff [1] [s⁻¹] | kon [1] [M⁻¹ s⁻¹] | Kd [2] [nM] | koff [2] [s⁻¹] | kon [2] [M⁻¹ s⁻¹] | Kd [3] [nM] | koff [3] [s⁻¹] | kon [3] [M⁻¹ s⁻¹] | Kd [4] [nM] | koff [4] [s⁻¹] | kon [4] [M⁻¹ s⁻¹] | Kd [5] [nM] | Kd [6] [nM] | Kd [7] [nM] | Kd [8] [nM] | Kd [9] [nM] | Kd [10] [nM]
AB21c (antibody, mouse IgG2a, V domains shown, Full-length mouse IgG2a) VH: DVQLVESGGGVVRPGESLRLSCAASGFTFSSNAMSWVRQAPGKGLEWLAGISAGGSDTYYPASVKGRFTISRDNSKNTLYLQMNTLTAEDTAVYYCARETWNHLFDYWGLGTLVTVSS VL: ALTQPASVSANPGETVKIACSGGDYYSYYYGWYQQKAPGSALVTVIYSDDKRPSDIPSRFSGSASGSTATLTITGVRAEDEAVYYCGGYDYSTYANAFGAGTTLTVL | 0.64 | 0.000479 | 749000 | 0.0588 | 3.31e-05 | 563000 | 0.876 | 0.000241 | 276000 | 1.34 | 0.000618 | 462000 | – | – | – | – | – | –
AB66c (antibody, mouse IgG2a, V domains shown, Full-length mouse IgG2a) VH: DVQLVESGGGVVRPGESLRLSCAASGFTFSSYAMSWVRQAPGKGLEWLAGISAGGSDTYYIDSVKGRFTISRDNPKNSLYLQMSSLTAEDTAVYYCARETWNHLFDYWGLGTLVTVSS VL: ALTQPASVSANPGETVKITCSGGDYYSTYYAWYQQKSPGSAPVTVIHSDDKRPSDIPSRFSGSASGSAATLIITGVRVEDEAVYYCGGYDGRTYINTFGAGTTLTVL | 0.564 | 0.000232 | 412000 | 0.0955 | 1.98e-05 | 207000 | 5.8 | 0.000619 | 107000 | 3.41 | 0.000762 | 224000 | – | – | – | – | – | –
AB3c (antibody, mouse IgG2a, V domains shown, Full-length mouse IgG2a) VH: AVTLDESGGGLQTPGGALSLVCKASGFIFSDYGMNWVRQAPGKGLEFVAQITSGSRTYYGAAVKGRATISRDNRQSTVKLQLNNLRAEDTGIYFCARDFGSGVGSIDAWGNGTEVIVSS VL: ALTQPASVSANLGGTVKITCSGSRGRYGWYQQRSPGSAPVTVIYRDNQRPSNIPSRFSSSTSGSTSTLTITGVQADDESVYFCGSYDGSIDIFGAGTTLTVL | 1.43 | 0.00143 | 999000 | 22 | 0.0118 | 534000 | 15 | 0.00619 | 412000 | 5.31 | 0.00412 | 776000 | – | – | – | – | – | –
AB27c (antibody, mouse IgG2a, V domains shown, Full-length mouse IgG2a) VH: DVQLVESGGGVVRPGESLRLSCAVSGFRFSSYAMSWVRQAPGKGLEWVSGISSGGDTYYVDSVKGRFTISRDNSKNTLYLQVNSLTAEDTAIYYCARETWNHLFDYWGLGTLVTVSS VL: ALTQPASVSADLGETVKITCSGGDSSSHYYGWYQQKSPGSAPVTVIYSDDERPSDIPSRFSGSASGSTATLTITGVRVEDEAIYYCGAYDGSTYANTFGAGTTLTVL | 3.42 | 0.00101 | 296000 | 0.487 | 0.000101 | 207000 | 9.49 | 0.0014 | 147000 | 15 | 0.00226 | 150000 | – | – | – | – | – | –
AB25c (antibody, mouse IgG2a, V domains shown, Full-length mouse IgG2a) VH: DVQLVESGGGVVRPGESLRLSCEASGFTFSSNAMSWVRQAPGKGLEWVAGISSGSDTYYGDSVKGRLTISRDNSKNILYLQMNSLTAEDTAVYYCARETWNHLFDYWGLGTLVTVSS VL: ALTQPASVSANPGETVEITCSGGSYSSYYYAWYQQKSPGSAPVTLIYSDDKRPSNIPSRFSGSASGSTATLTITGVRAEDEAVYFCGGYDQSSYTNPFGAGTTLTVL | 3.9 | 0.00143 | 366000 | 0.0587 | 2.07e-05 | 352000 | 2.81 | 0.000399 | 142000 | 9.64 | 0.00292 | 303000 | – | – | – | – | – | –
antibody 136 variant, light chain Mut / heavy chain wt (antibody, V domains shown) VH: not shown VL: EIVLTQSPGTLSLSPGERATLSCRASQSVYTYLAWYQQKPGQAPRLLIYGASSRATGIPDRFSGSGSGTEFTLTISSLQSEDFAVYYCQQYYDRPPLTFGGGTKVEIK | – | – | – | – | – | – | – | – | – | – | – | – | 4.12 | 32.6 | 17.4 | 2.8 | 19.6 | 7.28
antibody 136 variant, light chain Mut_S12T / heavy chain Mut (antibody, V domains shown) VH: EVQLVESGGGVVQPGRSLRLSCAASGFTFSSYDVNWVRQAPGKGLEWVSLISGSGEIIYYADSVKGRFTISRDNSKNTLYLQMNSLRAEDTAVYYCAKENNRYRFFDDWGQGTLVTVSS VL: EIVLTQSPGTLTLSPGERATLSCRASQSVYTYLAWYQQKPGQAPRLLIYGASSRATGIPDRFSGSGSGTEFTLTISSLQSEDFAVYYCQQYYDRPPLTFGGGTKVEIK | – | – | – | – | – | – | – | – | – | – | – | – | 2.85 | 16.3 | 10.5 | 2.09 | 66.7 | 4.88
antibody 136 variant, light chain Mut_Q38E / heavy chain Mut (antibody, V domains shown) VH: EVQLVESGGGVVQPGRSLRLSCAASGFTFSSYDVNWVRQAPGKGLEWVSLISGSGEIIYYADSVKGRFTISRDNSKNTLYLQMNSLRAEDTAVYYCAKENNRYRFFDDWGQGTLVTVSS VL: EIVLTQSPGTLSLSPGERATLSCRASQSVYTYLAWYQEKPGQAPRLLIYGASSRATGIPDRFSGSGSGTEFTLTISSLQSEDFAVYYCQQYYDRPPLTFGGGTKVEIK | – | – | – | – | – | – | – | – | – | – | – | – | 5.98 | 33.1 | 12.5 | 2.98 | 19.3 | 6.18
antibody 136 variant, light chain Mut / heavy chain Mut (antibody, V domains shown) VH: EVQLVESGGGVVQPGRSLRLSCAASGFTFSSYDVNWVRQAPGKGLEWVSLISGSGEIIYYADSVKGRFTISRDNSKNTLYLQMNSLRAEDTAVYYCAKENNRYRFFDDWGQGTLVTVSS VL: EIVLTQSPGTLSLSPGERATLSCRASQSVYTYLAWYQQKPGQAPRLLIYGASSRATGIPDRFSGSGSGTEFTLTISSLQSEDFAVYYCQQYYDRPPLTFGGGTKVEIK | – | – | – | – | – | – | – | – | – | – | – | – | 5.21 | 31.7 | 19.5 | 3.14 | 1.68 | 7.29
